In US10472401B2, “Peptides and combination of peptides for use in immunotherapy against ovarian cancer and other cancers” (immatics biotechnologies GmbH, priority 2015, dated 2019):

Target: HLA-A*02:01 (Homo sapiens, UniProt P04439, D140Y/D185E/D98H/E176V/E277Q/G131W/G231S/I119V/I121R/I166T/I218V/L300P/L318F/N151K/N90K/P208A/P217A/Q86G/Q94H/R138H/R169H/T345S)
Assay: MHC binding assay (UV-ligand exchange, ELISA of stabilized MHC complexes)
Details: MHC class I binding score; binding to HLA-A*02:01 ranged by peptide exchange yield (UV-ligand exchange, ELISA)
Summary of the method: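 Peptide-MHC complexes made by UV-ligand exchange, cleaving a UV-sensitive placeholder peptide and replacing it with the test peptide. Exchange yield measured by ELISA: streptavidin-captured monomers (diluted 100-fold, 1 h, 37 °C) detected with HRP anti-β2m and TMB, absorbance at 450 nm.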

Row | Substance | Peptide exchange
1 | 172 (VLYSYTIITV; listed as Homo sapiens) [compound 172] | ″++″ (≥20% = ++)
2 | 264 (SLQEQLHSV; listed as Homo sapiens) [compound 264] | ″+++″ (≥50% = +++)
3 | 197 (ALGPEGGRV; listed as Homo sapiens) [compound 197] | ″++″ (≥20% = ++)
4 | 453 (KLLEATSAV; listed as Homo sapiens) [compound 453] | ″++″ (≥20% = ++)
5 | 405 (ALYDVFLEV; listed as Homo sapiens) [compound 405] | ″++″ (≥20% = ++)
6 | 555 (YVLEGLKSV; listed as Homo sapiens) [compound 555] | ″+++″ (≥50% = +++)
7 | 244 (SLFGGTEITI; listed as Homo sapiens) [compound 244] | ″+++″ (≥50% = +++)
8 | 68 (SLMELPRGLFL; listed as Homo sapiens) [compound 68] | ″++++″ (≥75% = ++++)
9 | 431 (SLVNVVPKL; listed as Homo sapiens) [compound 431] | ″++″ (≥20% = ++)
10 | 412 (YLDDLNEGVYI; listed as Homo sapiens) [compound 412] | ″++″ (≥20% = ++)
11 | 590 (SLIEKLWQT; listed as Homo sapiens) [compound 590] | ″++″ (≥20% = ++)
12 | 169 (NLPEYLPFV; listed as Homo sapiens) [compound 169] | ″+++″ (≥50% = +++)
13 | 391 (YVYPQRLNFV; listed as Homo sapiens) [compound 391] | ″+++″ (≥50% = +++)
14 | 369 (GLFPEHLIDV; listed as Homo sapiens) [compound 369] | ″+++″ (≥50% = +++)
15 | 444 (GLLRDEALAEV; listed as Homo sapiens) [compound 444] | ″+++″ (≥50% = +++)
16 | 289 (VLLEIEDLQV; listed as Homo sapiens) [compound 289] | ″++++″ (≥75% = ++++)
17 | 584 (ALAEVAAMENV; listed as Homo sapiens) [compound 584] | ″+++″ (≥50% = +++)
18 | 176 (YLMEGSYNKVFL; listed as Homo sapiens) [compound 176] | ″++″ (≥20% = ++)
19 | 277 (LLPPLESLATV; listed as Homo sapiens) [compound 277] | ″++″ (≥20% = ++)
20 | 1 (SLMEPPAVLLL; listed as Homo sapiens) [compound 1] | ″+++″ (≥50% = +++)
21 | 229 (RLPGPLGTV; listed as Homo sapiens) [compound 229] | ″++″ (≥20% = ++)

Row | Substance | Peptide exchange
22 | 55 (SLLDLETLSL; listed as Homo sapiens) [compound 55] | ″++++″ (≥75% = ++++)
23 | 80 (FLYDNLVESL; listed as Homo sapiens) [compound 80] | ″++″ (≥20% = ++)
24 | 30 (LILDWVPYI; listed as Homo sapiens) [compound 30] | ″+++″ (≥50% = +++)
25 | 459 (ALITEVVRL; listed as Homo sapiens) [compound 459] | ″++″ (≥20% = ++)
26 | 297 (VLADIELAQA; listed as Homo sapiens) [compound 297] | ″+++″ (≥50% = +++)
27 | 623 (YLVEDIQHI; listed as Homo sapiens) [compound 623] | ″+++″ (≥50% = +++)
28 | 523 (YQIPRTFTL; listed as Homo sapiens) [compound 523] | ″++″ (≥20% = ++)
29 | 87 (ALPEAPAPLLPHIT; listed as Homo sapiens) [compound 87] | ″++″ (≥20% = ++)
30 | 505 (SLAPGDVVRQV; listed as Homo sapiens) [compound 505] | ″++″ (≥20% = ++)
31 | 507 (KLIDDQDISISL; listed as Homo sapiens) [compound 507] | ″+++″ (≥50% = +++)
32 | 529 (LLADELITV; listed as Homo sapiens) [compound 529] | ″+++″ (≥50% = +++)
33 | 441 (ALLENPKMEL; listed as Homo sapiens) [compound 441] | ″+++″ (≥50% = +++)
34 | 356 (KLLGKLPEL; listed as Homo sapiens) [compound 356] | ″+++″ (≥50% = +++)
35 | 158 (KLFDVDEDGYI; listed as Homo sapiens) [compound 158] | ″+++″ (≥50% = +++)
36 | 222 (NLIENVQRL; listed as Homo sapiens) [compound 222] | ″++″ (≥20% = ++)
37 | 367 (SLQNHNHQL; listed as Homo sapiens) [compound 367] | ″+++″ (≥50% = +++)
38 | 18 (YLVAKLVEV; listed as Homo sapiens) [compound 18] | ″++″ (≥20% = ++)
39 | 214 (FLLDLDPLLL; listed as Homo sapiens) [compound 214] | ″+++″ (≥50% = +++)
40 | 349 (SLTEYLQNV; listed as Homo sapiens) [compound 349] | ″++++″ (≥75% = ++++)
41 | 503 (SLNHFTHSV; listed as Homo sapiens) [compound 503] | ″+++″ (≥50% = +++)
42 | 13 (YLMDESLNL; listed as Homo sapiens) [compound 13] | ″+++″ (≥50% = +++)

Row | Substance | Peptide exchange
43 | 457 (SLLPGNLVEKV; listed as Homo sapiens) [compound 457] | ″+++″ (≥50% = +++)
44 | 238 (YLISFQTHI; listed as Homo sapiens) [compound 238] | ″+++″ (≥50% = +++)
45 | 253 (GLDAATATV; listed as Homo sapiens) [compound 253] | ″++″ (≥20% = ++)
46 | 602 (YLLEQIKLIEV; listed as Homo sapiens) [compound 602] | ″++++″ (≥75% = ++++)
47 | 335 (YSLSSVVTV; listed as Homo sapiens) [compound 335] | ″+++″ (≥50% = +++)
48 | 357 (SMHDLVLQV; listed as Homo sapiens) [compound 357] | ″+++″ (≥50% = +++)
49 | 620 (KLLNKIYEA; listed as Homo sapiens) [compound 620] | ″++++″ (≥75% = ++++)
50 | 513 (SLWPSPEQL; listed as Homo sapiens) [compound 513] | ″++″ (≥20% = ++)
51 | 520 (LAVHPSGVAL; listed as Homo sapiens) [compound 520] | ″+″ (≥10% = +)
52 | 429 (GLVNDLARV; listed as Homo sapiens) [compound 429] | ″++″ (≥20% = ++)
53 | 477 (ALLPASGQIAL; listed as Homo sapiens) [compound 477] | ″+++″ (≥50% = +++)
54 | 273 (NLFQSVREV; listed as Homo sapiens) [compound 273] | ″++″ (≥20% = ++)
55 | 467 (FLAKDFNFL; listed as Homo sapiens) [compound 467] | ″+++″ (≥50% = +++)
56 | 35 (KINDTIYEV; listed as Homo sapiens) [compound 35] | ″+++″ (≥50% = +++)
57 | 469 (YLASDEITTV; listed as Homo sapiens) [compound 469] | ″+++″ (≥50% = +++)
58 | 353 (YLFEMDSSL; listed as Homo sapiens) [compound 353] | ″++″ (≥20% = ++)
59 | 270 (LLLDEEGTFSL; listed as Homo sapiens) [compound 270] | ″++″ (≥20% = ++)
60 | 455 (SLLKEPQKVQL; listed as Homo sapiens) [compound 455] | ″++″ (≥20% = ++)
61 | 495 (FIFSEKPVFV; listed as Homo sapiens) [compound 495] | ″+++″ (≥50% = +++)
62 | 106 (LLYDAVHIVSV; listed as Homo sapiens) [compound 106] | ″+++″ (≥50% = +++)
